From US20120220489A1

Key:
[1] = biological target: ERK2 (p42), human, Biosource PHO 0104 (human) (UniProt P28482); assay: RPA, competition: +recombinant protein 100 nM (not named)
[2] = biological target: pRb-BSA 1x peptide-protein conjugate (bovine); assay: as above
[3] = biological target: ERK1 (p44) active (GST tagged), human, Invitrogen PV 3311 (human) (UniProt P27361); assay: as above
[4] = biological target: Histone H3 recombinant protein, human, Upstate 14-494 (human) (UniProt P68431); assay: as above
[5] = biological target: ERK1 (p44) inactive (GST tagged), human, Invitrogen PV 3312 (human) (UniProt P27361); assay: as above
[6] = biological target: Erk1-BSA 2.7x peptide-protein conjugate (human; bovine); assay: as above
[7] = biological target: pRb recombinant protein, human, Active Motif 31 128 (human) (UniProt P06400); assay: as above
[8] = biological target: Histone H3 recombinant protein, calf, Roche 11 034 758 001 (calf) (UniProt P68432); assay: as above
[9] = biological target: ERK1 (p42) active (phospho), human, Active Motif 31 152 (human) (UniProt P27361); assay: as above
[10] = biological target: ERK1 (p44), human, Cell Signaling Technology 7416 (human) (UniProt P27361); assay: as above
[11] = biological target: Histone H3-BSA 2.7x peptide-protein conjugate (bovine); assay: as above
[12] = biological target: pErk1/2-BSA 2.7x peptide-protein conjugate (human; bovine); assay: as above
[13] = biological target: ERK2 (p42), human, Biosource PHO 0104 (human) (UniProt P28482); assay: RPA, competition: +recombinant protein 10 nM (not named)
[14] = biological target: pRb-BSA 1x peptide-protein conjugate (bovine); assay: as above
[15] = biological target: ERK1 (p44) active (GST tagged), human, Invitrogen PV 3311 (human) (UniProt P27361); assay: as above
[16] = biological target: Histone H3 recombinant protein, human, Upstate 14-494 (human) (UniProt P68431); assay: as above
[17] = biological target: ERK1 (p44) inactive (GST tagged), human, Invitrogen PV 3312 (human) (UniProt P27361); assay: as above
[18] = biological target: Erk1-BSA 2.7x peptide-protein conjugate (human; bovine); assay: as above
[19] = biological target: pRb recombinant protein, human, Active Motif 31 128 (human) (UniProt P06400); assay: as above
[20] = biological target: Histone H3 recombinant protein, calf, Roche 11 034 758 001 (calf) (UniProt P68432); assay: as above
[21] = biological target: ERK1 (p42) active (phospho), human, Active Motif 31 152 (human) (UniProt P27361); assay: as above
[22] = biological target: ERK1 (p44), human, Cell Signaling Technology 7416 (human) (UniProt P27361); assay: as above
[23] = biological target: Histone H3-BSA 2.7x peptide-protein conjugate (bovine); assay: as above
[24] = biological target: pErk1/2-BSA 2.7x peptide-protein conjugate (human; bovine); assay: as above
[25] = biological target: Histone H3 recombinant protein, human, Upstate 14-494 (human) (UniProt P68431); assay: RPA, normal assay
[26] = biological target: ERK1 (p44) inactive (GST tagged), human, Invitrogen PV 3312 (human) (UniProt P27361); assay: RPA, normal assay
[27] = biological target: Erk1-BSA 2.7x peptide-protein conjugate (human; bovine); assay: RPA, normal assay
[28] = biological target: Histone H3 recombinant protein, calf, Roche 11 034 758 001 (calf) (UniProt P68432); assay: RPA, normal assay
[29] = biological target: Histone H3-BSA 2.7x peptide-protein conjugate (bovine); assay: RPA, normal assay
[30] = biological target: ERK1 (p44) active (GST tagged), human, Invitrogen PV 3311 (human) (UniProt P27361); assay: RPA standard curves, mean of duplicate assays
[31] = biological target: ERK2 (p42), human, Biosource PHO 0104 (human) (UniProt P28482); assay: RPA, normal assay
[32] = biological target: pRb-BSA 1x peptide-protein conjugate (bovine); assay: RPA, normal assay
[33] = biological target: ERK1 (p44) active (GST tagged), human, Invitrogen PV 3311 (human) (UniProt P27361); assay: RPA, normal assay
[34] = biological target: pRb recombinant protein, human, Active Motif 31 128 (human) (UniProt P06400); assay: RPA, normal assay
[35] = biological target: ERK1 (p42) active (phospho), human, Active Motif 31 152 (human) (UniProt P27361); assay: RPA, normal assay
[36] = biological target: ERK1 (p44), human, Cell Signaling Technology 7416 (human) (UniProt P27361); assay: RPA, normal assay
[37] = biological target: ERK1 (p44) active (GST tagged), human, Invitrogen PV 3311 (human) (UniProt P27361); assay: RPA standard curve, assay 1, LOD back-calculated from one-site fit
[38] = biological target: ERK1 (p44) active (GST tagged), human, Invitrogen PV 3311 (human) (UniProt P27361); assay: RPA standard curve, assay 2, LOD back-calculated from one-site fit

Chain of Histone H3-BSA 2.7x peptide-protein conjugate (bovine) (P02769 25-607 limits assumed): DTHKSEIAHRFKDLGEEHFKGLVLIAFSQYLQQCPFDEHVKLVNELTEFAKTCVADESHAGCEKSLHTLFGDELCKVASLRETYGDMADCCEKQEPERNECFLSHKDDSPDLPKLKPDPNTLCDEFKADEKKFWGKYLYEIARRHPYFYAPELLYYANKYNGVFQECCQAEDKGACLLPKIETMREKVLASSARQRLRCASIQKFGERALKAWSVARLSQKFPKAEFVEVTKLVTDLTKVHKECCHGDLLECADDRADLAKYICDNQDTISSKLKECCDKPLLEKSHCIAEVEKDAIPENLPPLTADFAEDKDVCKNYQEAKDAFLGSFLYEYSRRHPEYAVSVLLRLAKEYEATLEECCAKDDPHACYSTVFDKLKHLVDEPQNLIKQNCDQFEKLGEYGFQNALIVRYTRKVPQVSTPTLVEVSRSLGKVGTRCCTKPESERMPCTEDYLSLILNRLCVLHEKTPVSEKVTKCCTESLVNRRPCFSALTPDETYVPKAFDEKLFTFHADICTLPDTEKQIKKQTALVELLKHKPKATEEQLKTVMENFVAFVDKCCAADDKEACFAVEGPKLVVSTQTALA
Chain of pErk1/2-BSA 2.7x peptide-protein conjugate (human; bovine) (P02769 25-607 limits assumed): as above
Chain of pRb-BSA 1x peptide-protein conjugate (bovine) (P02769 25-607 limits assumed): as above
Chain of UniProt P06400 (P06400 whole entry): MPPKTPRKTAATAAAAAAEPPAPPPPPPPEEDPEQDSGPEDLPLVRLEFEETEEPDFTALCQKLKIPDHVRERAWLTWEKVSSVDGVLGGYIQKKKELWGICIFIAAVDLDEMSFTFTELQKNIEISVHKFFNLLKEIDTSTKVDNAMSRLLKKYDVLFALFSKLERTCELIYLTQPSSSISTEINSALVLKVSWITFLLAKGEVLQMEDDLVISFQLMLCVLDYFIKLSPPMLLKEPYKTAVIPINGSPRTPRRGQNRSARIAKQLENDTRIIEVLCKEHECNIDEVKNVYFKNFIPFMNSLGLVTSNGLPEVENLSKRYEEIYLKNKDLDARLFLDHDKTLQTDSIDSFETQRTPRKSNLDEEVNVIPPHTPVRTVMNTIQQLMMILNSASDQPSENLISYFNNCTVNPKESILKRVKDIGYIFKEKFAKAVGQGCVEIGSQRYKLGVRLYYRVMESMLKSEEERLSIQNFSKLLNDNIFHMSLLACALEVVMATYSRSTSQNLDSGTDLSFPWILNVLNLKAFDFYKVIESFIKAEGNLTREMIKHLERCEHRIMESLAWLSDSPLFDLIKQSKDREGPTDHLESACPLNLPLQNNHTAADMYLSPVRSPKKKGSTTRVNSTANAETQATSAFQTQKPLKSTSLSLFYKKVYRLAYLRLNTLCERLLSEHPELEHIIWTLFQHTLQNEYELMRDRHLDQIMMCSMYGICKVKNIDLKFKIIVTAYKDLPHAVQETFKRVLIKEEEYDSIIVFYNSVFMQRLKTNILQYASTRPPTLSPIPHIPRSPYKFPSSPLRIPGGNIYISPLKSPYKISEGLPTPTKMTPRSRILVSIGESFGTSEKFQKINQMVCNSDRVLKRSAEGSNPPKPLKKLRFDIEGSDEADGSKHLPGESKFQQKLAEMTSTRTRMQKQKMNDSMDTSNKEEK
Chain of UniProt P28482 (P28482 2-360 limits assumed): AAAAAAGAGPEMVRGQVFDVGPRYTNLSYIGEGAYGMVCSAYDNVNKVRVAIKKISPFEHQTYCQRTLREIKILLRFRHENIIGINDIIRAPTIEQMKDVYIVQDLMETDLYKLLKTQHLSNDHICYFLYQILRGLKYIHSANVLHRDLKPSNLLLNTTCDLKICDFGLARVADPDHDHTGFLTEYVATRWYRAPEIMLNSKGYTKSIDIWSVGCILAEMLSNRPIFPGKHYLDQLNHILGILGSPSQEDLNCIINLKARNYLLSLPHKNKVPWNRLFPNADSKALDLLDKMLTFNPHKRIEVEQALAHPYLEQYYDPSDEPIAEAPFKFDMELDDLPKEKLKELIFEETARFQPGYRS
Chain of Erk1-BSA 2.7x peptide-protein conjugate (human; bovine) (peptide, as listed by the source limits assumed, chain 1 of 2): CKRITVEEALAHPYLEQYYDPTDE
Chain of Erk1-BSA 2.7x peptide-protein conjugate (human; bovine) (P02769 25-607 limits assumed, chain 2 of 2): as the sequence (P02769 25-607 limits assumed) above

| maximum standard curve signal [1] | maximum standard curve signal [2] | maximum standard curve signal [3] | maximum standard curve signal [4] | maximum standard curve signal [5] | maximum standard curve signal [6] | maximum standard curve signal [7] | maximum standard curve signal [8] | maximum standard curve signal [9] | maximum standard curve signal [10] | maximum standard curve signal [11] | maximum standard curve signal [12] | maximum standard curve signal [13] | maximum standard curve signal [14] | maximum standard curve signal [15] | maximum standard curve signal [16] | maximum standard curve signal [26] | maximum standard curve signal [27] | maximum standard curve signal [28] | maximum standard curve signal [29] | Substance | further results |
| --- | --- | --- | --- | --- | --- | --- | --- | --- | --- | --- | --- | --- | --- | --- | --- | --- | --- | --- | --- | --- | --- |
| 1.56 RFI | 2.46 RFI | 1.37 RFI | 2.09 RFI | 1.32 RFI | 1.42 RFI | 2.28 RFI | 2.56 RFI | 1.87 RFI | 1.8 RFI | 1.68 RFI | 1.81 RFI | 2.3 RFI | 2.57 RFI | 2.2 RFI | 3.16 RFI | 0.02 RFI | 0.01 RFI | 0.43 RFI | 5.38 RFI | Histone H3 antibody, Abcam ab1791 | maximum standard curve signal [17]: 2.54 RFI; maximum standard curve signal [18]: 2.8 RFI; maximum standard curve signal [19]: 2.77 RFI; maximum standard curve signal [20]: 2.5 RFI; maximum standard curve signal [21]: 2.4 RFI; maximum standard curve signal [22]: 2.19 RFI; maximum standard curve signal [23]: 3.93 RFI; maximum standard curve signal [24]: 2.57 RFI; maximum standard curve signal [25]: 11.2 RFI |
| 0.18 RFI | 0.16 RFI | 0.32 RFI | 0.16 RFI | 0.38 RFI | 5.69 RFI | 0.17 RFI | 0.15 RFI | 0.15 RFI | 0.16 RFI | 0.22 RFI | 0.14 RFI | 0.9 RFI | 0.1 RFI | 3.88 RFI | 0.09 RFI | 10.9 RFI | 8.24 RFI | 0.02 RFI | 0.04 RFI | p44/42 MAPK (Erk1/2) antibody, Biosource 44-654G | maximum standard curve signal [17]: 5.17 RFI; maximum standard curve signal [18]: 7.88 RFI; maximum standard curve signal [19]: 0.11 RFI; maximum standard curve signal [20]: 0.07 RFI; maximum standard curve signal [21]: 0.31 RFI; maximum standard curve signal [22]: 0.15 RFI; maximum standard curve signal [23]: 0.13 RFI; maximum standard curve signal [24]: 0.08 RFI; mean LOD [30]: 0.044 nM; maximum standard curve signal [31]: 3.57 RFI; maximum standard curve signal [32]: 0.03 RFI; maximum standard curve signal [33]: 10.4 RFI; maximum standard curve signal [34]: 0.02 RFI; maximum standard curve signal [35]: 1.17 RFI; maximum standard curve signal [36]: 0.28 RFI; LOD [37]: 0.04 nM; LOD [38]: 0.047 nM |
| – | – | – | – | – | – | – | – | – | – | – | – | – | – | – | – | 0.23 RFI | 0.02 RFI | 0.01 RFI | 0.11 RFI | p44/42 MAPK phospho (pERK1/2) Thr202/Tyr204 antibody, Cell Signaling Technology #9101 | mean LOD [30]: 0.055 nM; maximum standard curve signal [31]: 0.01 RFI; maximum standard curve signal [32]: 0.01 RFI; maximum standard curve signal [33]: 1.66 RFI; maximum standard curve signal [25]: 0.01 RFI; maximum standard curve signal [34]: 0.01 RFI; maximum standard curve signal [35]: 0.19 RFI; maximum standard curve signal [36]: 0.04 RFI; LOD [37]: 0.058 nM; LOD [38]: 0.052 nM |
